Data reported in article PMC5548808, “Structural and functional insights into the lipopolysaccharide ABC transporter LptB2FG” (Nature Communications, 2017).
Substitutions are numbered along the chain they refer to.

B1: LptB of E. coli (in purified LptB2CFG) (natural protein, UniProt P0A9V1 1-241, looked up)
chain: MATLTAKNLAKAYKGRRVVEDVSLTVNSGEIVGLLGPNGAGKTTTFYMVVGIVPRDAGNIIIDDDDISLLPLHARARRGIGYLPQEASIFRRLSVYDNLMAVLQIRDDLSAEQREDRANELMEEFHIEHLRDSMGQSLSGGERRRVEIARALAANPKFILLDEPFAGVDPISVIDIKRIIEHLRDSGLGVLITDHNVRETLAVCERAYIVSQGHLIAHGTPTEILQDEHVKRVYLGEDFRL
notes: in the K. pneumoniae construct and in the E. coli pTRC99a-Kan LptBFG plasmid it is an 8xHis at the C terminus of LptB
B2: LptC of E. coli (in purified LptB2CFG) (natural protein, UniProt P0ADV9 1-191, looked up)
chain: MSKARRWVIIVLSLAVLVMIGINMAEKDDTAQVVVNNNDPTYKSEHTDTLVYNPEGALSYRLIAQHVEYYSDQAVSWFTQPVLTTFDKDKIPTWSVKADKAKLTNDRMLYLYGHVEVNALVPDSQLRRITTDNAQINLVTQDVTSEDLVTLYGTTFNSSGLKMRGNLRSKNAELIEKVRTSYEIQNKQTQP
notes: LptC, E. coli, inner membrane protein of the LptB2CFG complex; The construct of LptC is not described

Legend:
Assay in all cases: SEC; co-expressed E. coli LptB2CFG complexes (wild type and mutants) purified as the K. pneumoniae complex; HiLoad 16/600 Superdex 200 pg, 20 mM Tris-Cl pH 7.8, 150 mM NaCl, 5% glycerol, 0.05% DDM
Details in all cases: both partners purified
[1] = target: T1, LptF F26D/L62D of E. coli (in purified mutant LptB2CFG) (E. coli, UniProt P0AF98 1-366, F26D | L62D)
T1 construct: LptF, E. coli, double mutant F26D/L62D
T1 sequence (looked up): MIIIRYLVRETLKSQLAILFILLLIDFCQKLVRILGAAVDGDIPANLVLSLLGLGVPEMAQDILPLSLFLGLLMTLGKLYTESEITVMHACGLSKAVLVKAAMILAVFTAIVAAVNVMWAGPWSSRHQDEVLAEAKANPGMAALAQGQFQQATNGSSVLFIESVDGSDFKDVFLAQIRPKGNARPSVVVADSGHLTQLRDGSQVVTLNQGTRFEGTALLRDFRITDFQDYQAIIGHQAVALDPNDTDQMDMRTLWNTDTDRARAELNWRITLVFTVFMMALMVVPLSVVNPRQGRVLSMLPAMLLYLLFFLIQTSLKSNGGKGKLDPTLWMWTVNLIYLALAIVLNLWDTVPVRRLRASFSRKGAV

[2] = target: T2, LptG K34E/R136E of E. coli (in purified mutant LptB2CFG) (E. coli, UniProt P0ADC6 1-360, K34E | R136E)
T2 construct: LptG, E. coli, double mutant K34E/R136E
T2 sequence (looked up): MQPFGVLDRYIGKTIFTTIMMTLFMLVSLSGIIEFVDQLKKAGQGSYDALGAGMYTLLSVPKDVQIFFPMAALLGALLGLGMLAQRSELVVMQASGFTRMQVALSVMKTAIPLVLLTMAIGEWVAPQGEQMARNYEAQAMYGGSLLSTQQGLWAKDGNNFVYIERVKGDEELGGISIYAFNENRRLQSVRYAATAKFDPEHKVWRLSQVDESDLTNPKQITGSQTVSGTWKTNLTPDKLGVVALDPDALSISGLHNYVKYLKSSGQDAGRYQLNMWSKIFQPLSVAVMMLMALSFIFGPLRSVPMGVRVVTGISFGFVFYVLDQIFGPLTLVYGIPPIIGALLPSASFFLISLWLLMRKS

[3] = target: T3, LptF of E. coli (in purified wild-type LptB2CFG) (E. coli, UniProt P0AF98 1-366)
T3 construct: LptF, E. coli, transmembrane subunit of the LptB2CFG complex
T3 sequence (looked up): T1 sequence (looked up) with D26F, D62L

[4] = target: T4, LptG of E. coli (in purified wild-type LptB2CFG) (E. coli, UniProt P0ADC6 1-360)
T4 construct: LptG, E. coli, transmembrane subunit of the LptB2CFG complex
T4 sequence (looked up): T2 sequence (looked up) with E34K, E136R

[5] = target: B1

Binder: B1
- binding result [1]: binds
- binding result [2]: binds
- binding result [3]: binds
- binding result [4]: binds

Binder: B2
- binding result [5]: binds
